To fix the notation:
B1: DBAT (recombinant DBAT of T. cuspidata) (Taxus cuspidata) (protein)
chain: MAGSTEFVVRSLERVMVAPSQPSPKAFLQLSTLDNLPGVRENIFNTLLVYNASDRVSVDPAKVIRQALSKVLVYYSPFAGRLRKKENGDLEVECTGEGALFVEAMADTDLSVLGDLDDYSPSLEQLLFCLPPDTDIEDIHPLVVQVTRFTCGGFVVGVSFCHGICDGLGAGQFLIAMGEMARGEIKPSSEPIWKRELLKPEDPLYRFQYYHFQLICPPSTFGKIVQGSLVITSETINCIKQCLREESKEFCSAFEVVSALAWIARTRALQIPHSENVKLIFAMDMRKLFNPPLSKGYYGNFVGTVCAMDNVKDLLSGSLLRVVRIIKKAKVSLNEHFTSTIVTPRSGSDESINYENIVGFGDRRRLGFDEVDFGWGHADNVSLVQHGLKDVSVVQSYFLFIRPPKNNPDGIKILSFMPPSIVKSFKFEMETMTNKYVTKP
B2: DBAT (recombinant DBAT of T. cuspidata) (Taxus cuspidata; F301V) (protein)
chain: B1 chain with F301V
B3: DBAT (recombinant DBAT of T. cuspidata) (Taxus cuspidata; F301V/G38R) (protein)
chain: B1 chain with G38R, F301V
B4: DBAT (recombinant DBAT of T. cuspidata) (Taxus cuspidata; G38R) (protein)
chain: B1 chain with G38R

From paper PMC5454391, “Improving 10-deacetylbaccatin III-10-β-O-acetyltransferase catalytic fitness for Taxol production” (Nature Communications, 2017) come the findings set out here.

Positions count from the first letter of the chain named. In names and notes the source's numbering stands.

Substrate in the data set: [H][C@]12[C@H](OC(=O)c3ccccc3)[C@]3(O)C[C@H](OC(=O)[C@H](O)[C@@H](NC(=O)c4ccccc4)c4ccccc4)C(C)=C([C@@H](O)C(=O)[C@]1(C)[C@@H](O)C[C@@]1([H])OC[C@@]21OC(C)=O)C3(C)C
Put plainly: purified protein. The conditions noted are these: acetyl-CoA 2,000 μM (saturating), 50 mM sodium acetate pH 5.5, 37.5 °C, 180 min.
As to B1, the Km is listed as 0.546 (±0.029) mM, the Vmax was 0.204 µM/min, the kcat was found to be 0.000334 s⁻¹ and the kcat/Km was 0.611 M⁻¹ s⁻¹.

As for B2, the Km is given as 0.178 (±0.017) mM, the Vmax turned out to be 0.242 µM/min, the kcat is 0.000396 s⁻¹ and the kcat/Km turned out to be 2.22 M⁻¹ s⁻¹.

Regarding B3, the Km was 0.424 (±0.133) mM, the Vmax turned out to be 0.918 µM/min, the kcat stood at 0.0015 s⁻¹ and the kcat/Km stood at 3.54 M⁻¹ s⁻¹.

Turning to B4, the Km is 0.368 (±0.061) mM, the Vmax was 0.499 µM/min, the catalytic constant (kcat) was determined as 0.000815 s⁻¹ and the kcat/Km worked out at 2.22 M⁻¹ s⁻¹.

In general, Vmax refers to the top rate of the reaction or transport when substrate is in excess. As a reminder, the kcat is the number of substrate molecules converted per active site and unit of time at saturation. By kcat/Km is commonly meant the turnover number divided by the Michaelis constant.
